According to publication PMC4526660:
Several values for one entry are separate records, joined by “and”; a condition that tells them apart may be missing. Equal entries are not always repeated. Where two headings read alike, the source gives them in different places. Blank lines part the entries; values can stand above or below the substance they belong to.

Columns and labels:
[1] = molecular target: Phosphatase and tensin homolog deleted on chromosome 10 (PTEN) (African green monkey (endogenous in Vero)); test: co-IP; immunoprecipitation with PTEN, Rak or β-arrestin antibodies from Vero cells, mock, ARV-infected or p17-transfected, also with Rak shRNA, Rock-1 shRNA, Y-27632 or TBB; 500 ug cellular proteins with 4 ug antibody at 4°C overnight; Western blot; amounts normalized to mock controls
[2] = molecular target: Phosphatase and tensin homolog deleted on chromosome 10 (PTEN) (African green monkey (endogenous in Vero)); test: as above; remark: listed apart in the source

Rak, sequence (P42685 whole entry): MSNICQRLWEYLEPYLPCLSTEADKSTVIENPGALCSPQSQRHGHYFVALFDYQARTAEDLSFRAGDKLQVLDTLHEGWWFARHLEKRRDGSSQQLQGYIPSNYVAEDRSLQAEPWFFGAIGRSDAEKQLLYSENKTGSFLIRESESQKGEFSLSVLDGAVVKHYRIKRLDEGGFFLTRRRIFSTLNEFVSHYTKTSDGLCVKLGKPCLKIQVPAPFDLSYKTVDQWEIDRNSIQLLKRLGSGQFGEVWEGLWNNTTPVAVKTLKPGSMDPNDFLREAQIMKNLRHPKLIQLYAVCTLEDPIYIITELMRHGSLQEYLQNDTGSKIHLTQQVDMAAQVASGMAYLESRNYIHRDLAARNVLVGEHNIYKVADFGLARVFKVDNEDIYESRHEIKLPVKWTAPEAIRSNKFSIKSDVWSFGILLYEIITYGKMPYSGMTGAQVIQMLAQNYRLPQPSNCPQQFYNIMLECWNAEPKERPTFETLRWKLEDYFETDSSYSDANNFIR

other [1]: 2.8 fold and 3.1 fold
other [2]: 2.35 fold and 2.45 fold
Substance: E3 ligase NEDD4-1 (natural protein)

fold increase of Rak-PTEN association against mock, ARV-infected cells [1]: 3.8 fold
fold increase of Rak-PTEN association against mock, p17-transfected cells [1]: 4.5 fold
Substance: Rak (from UniProt P42685-1 1-505) (natural protein)

fold increase of β-arrestin-PTEN association against mock, ARV-infected cells [1]: 3.5 fold
fold increase of β-arrestin-PTEN association against mock, p17-transfected cells [1]: 6 fold
Substance: β-arrestin (natural protein)
